The labels stand for the following.
B1: TEAD4 YBD domain (217-434) with N-terminal SUMO and 6xHis tag (domain or fragment, human, UniProt Q15561 217-434, looked up)
chain: RSVASSKLWMLEFSAFLEQQQDPDTYNKHLFVHIGQSSPSYSDPYLEAVDIRQIYDKFPEKKGGLKDLFERGPSNAFFLVKFWADLNTNIEDEGSSFYGVSSQYESPENMIITCSTKVCSFGKQVVEKVETEYARYENGHYSYRIHRSPLCEYMINFIHKLKHLPEKYMMNSVLENFTILQVVTNRDTQETLLCIAYVFEVSASEHGAQHHIYRLVKE
notes: Detected in the pull-downs with an antibody against 6xHis; also called SUMO-TEAD4; SUMO-tagged TEAD4-YBD; source: Escherichia coli BL21 (DE3), purified (Ni-NTA, Superdex 200); not shown: SUMO, N-terminal, kept; His6, N-terminal, kept

Holding throughout (details): both partners purified
One assay deals with T1, MBP-NF2 (18-595) WT (UniProt P35240 18-595).
T1 construct: also called MBP-NF2 WT; MBP-NF2 FL; source: purified (amylose resin, Superdex 200); not shown: MBP, N-terminal, kept
T1 sequence (looked up): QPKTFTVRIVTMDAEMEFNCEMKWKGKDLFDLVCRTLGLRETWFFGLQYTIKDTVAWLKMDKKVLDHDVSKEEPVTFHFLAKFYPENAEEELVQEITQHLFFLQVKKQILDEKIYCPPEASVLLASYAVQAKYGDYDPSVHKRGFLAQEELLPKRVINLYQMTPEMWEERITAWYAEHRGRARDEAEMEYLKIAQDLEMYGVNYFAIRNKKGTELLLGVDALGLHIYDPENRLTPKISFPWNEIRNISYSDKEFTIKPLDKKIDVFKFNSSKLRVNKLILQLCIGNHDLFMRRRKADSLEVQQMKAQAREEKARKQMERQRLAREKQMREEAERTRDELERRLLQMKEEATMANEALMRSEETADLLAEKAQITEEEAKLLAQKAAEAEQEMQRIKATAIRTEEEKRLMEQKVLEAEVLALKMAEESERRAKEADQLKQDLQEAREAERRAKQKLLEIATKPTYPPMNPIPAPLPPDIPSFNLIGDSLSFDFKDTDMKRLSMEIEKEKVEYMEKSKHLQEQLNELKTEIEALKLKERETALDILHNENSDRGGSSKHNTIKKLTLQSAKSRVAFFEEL
Put plainly: pull-down; MBP-NF2 bound to MBP resin in PBS 1 h at 4 °C, incubated with purified SUMO-TEAD4 in PBS 1 h at 4 °C, washed four times; SDS-PAGE and anti-6xHis blot.

For another assay, the target named is T2, MBP-NF2 A585W mutant (UniProt P35240 18-595, A585W).
T2 construct: source: purified as MBP-NF2; not shown: MBP, N-terminal, kept
T2 sequence (looked up): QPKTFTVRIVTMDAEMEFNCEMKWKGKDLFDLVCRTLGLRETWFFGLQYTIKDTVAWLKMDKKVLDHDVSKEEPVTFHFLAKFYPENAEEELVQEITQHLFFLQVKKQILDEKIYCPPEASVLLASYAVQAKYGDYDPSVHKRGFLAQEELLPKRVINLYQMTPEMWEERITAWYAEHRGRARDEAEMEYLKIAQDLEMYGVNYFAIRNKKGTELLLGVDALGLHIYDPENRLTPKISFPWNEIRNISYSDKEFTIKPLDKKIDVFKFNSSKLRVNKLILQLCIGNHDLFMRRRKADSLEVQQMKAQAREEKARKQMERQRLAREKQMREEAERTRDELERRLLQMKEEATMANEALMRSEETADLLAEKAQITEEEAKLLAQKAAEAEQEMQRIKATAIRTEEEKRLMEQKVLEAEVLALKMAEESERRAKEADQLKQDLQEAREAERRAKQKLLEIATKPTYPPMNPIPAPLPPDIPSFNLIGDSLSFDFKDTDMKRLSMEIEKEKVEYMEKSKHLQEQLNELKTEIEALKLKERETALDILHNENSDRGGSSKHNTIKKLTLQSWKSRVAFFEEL
The assay is described as above.

For assay [1], the target named is T3, full-length NF2 with GST tag (UniProt P35240 1-595).
T3 construct: NF2 (Merlin), full length; also called GST-NF2; GST-NF2-FL; source: Escherichia coli, purified
T3 sequence (looked up): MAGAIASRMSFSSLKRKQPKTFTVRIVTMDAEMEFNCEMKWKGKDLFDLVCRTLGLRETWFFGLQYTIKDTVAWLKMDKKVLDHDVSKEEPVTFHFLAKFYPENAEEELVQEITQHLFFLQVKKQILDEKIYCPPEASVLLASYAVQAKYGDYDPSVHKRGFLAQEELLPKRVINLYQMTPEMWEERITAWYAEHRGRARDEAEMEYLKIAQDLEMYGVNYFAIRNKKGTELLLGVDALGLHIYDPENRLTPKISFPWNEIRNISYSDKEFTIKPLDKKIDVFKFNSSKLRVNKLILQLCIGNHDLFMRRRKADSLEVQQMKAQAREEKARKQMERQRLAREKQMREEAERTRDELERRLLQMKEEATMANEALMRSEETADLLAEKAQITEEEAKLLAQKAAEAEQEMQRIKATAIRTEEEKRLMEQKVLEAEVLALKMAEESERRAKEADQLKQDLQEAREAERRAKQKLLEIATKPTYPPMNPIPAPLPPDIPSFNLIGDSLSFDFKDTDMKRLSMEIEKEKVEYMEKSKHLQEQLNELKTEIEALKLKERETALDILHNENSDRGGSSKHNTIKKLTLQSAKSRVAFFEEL
Put plainly: pull-down; GST-NF2 (full length, truncations) bound to GST resin in PBS 1 h at 4 °C, incubated with purified SUMO-TEAD4 in PBS 1 h at 4 °C, washed four times; SDS-PAGE and anti-6xHis blot; in Figure 2C with or without co-incubated FERM domain.

For assay [2], the target named is T4, GST-NF2 N-terminal FERM domain (1-341 aa) (UniProt P35240 1-341).
T4 construct: also called GST-NF2-FERM WT
T4 sequence (looked up): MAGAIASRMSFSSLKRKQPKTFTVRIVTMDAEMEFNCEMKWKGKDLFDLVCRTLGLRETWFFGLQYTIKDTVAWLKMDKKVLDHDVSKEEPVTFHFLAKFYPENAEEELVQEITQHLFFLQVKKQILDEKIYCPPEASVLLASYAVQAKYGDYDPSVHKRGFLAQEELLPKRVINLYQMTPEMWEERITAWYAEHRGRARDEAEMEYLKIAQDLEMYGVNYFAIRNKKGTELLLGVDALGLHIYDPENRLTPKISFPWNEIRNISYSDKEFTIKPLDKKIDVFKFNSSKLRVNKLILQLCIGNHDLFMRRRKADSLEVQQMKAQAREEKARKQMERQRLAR
The assay is described as above.

Assay [3] addresses T5, GST-NF2 C-terminal half (342-595 aa) (UniProt P35240 342-595).
T5 sequence (looked up): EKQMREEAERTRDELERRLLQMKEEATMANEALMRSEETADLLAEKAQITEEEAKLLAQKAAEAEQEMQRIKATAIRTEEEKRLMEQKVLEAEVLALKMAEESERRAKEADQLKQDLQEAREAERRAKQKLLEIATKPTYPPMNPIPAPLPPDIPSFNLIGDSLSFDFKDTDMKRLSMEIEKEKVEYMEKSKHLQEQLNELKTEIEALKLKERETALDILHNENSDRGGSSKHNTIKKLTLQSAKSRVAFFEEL
The assay is described as above.

Assay [4] deals with B1. Put plainly: pull-down; in vitro competitive binding assay: YAP-TEAD4 complex on GST-YAP with a dose addition of NF2; SDS-PAGE.
The target in assay [5] is B1. Put plainly: pull-down; GST-NF2 (full length, truncations) bound to GST resin in PBS 1 h at 4 °C, incubated with purified SUMO-TEAD4 in PBS 1 h at 4 °C, washed four times; SDS-PAGE and anti-6xHis blot; in Figure 2C with or without co-incubated FERM domain.

With B1, the binding result (with MBP-NF2 (18-595) WT; in the assay with MBP-NF2 A585W mutant; in assay [1]; in assay [2]; in assay [3]) was “binds” each time.

B2: GST-YAP 47-131 (domain or fragment, UniProt P46937 47-131, looked up)
chain: APPAGHQIVHVRGDSETDLEALFNAVMNPKTANVPQTVPMRLRKLPDSFFKPPEPKSHSRQASTDAGTAGALTPQHVRAHSSPAS
notes: YAP (Yes-associated protein), residues 47-131
In the case of B2, in assay [4], the binding result is recorded as “binds”.

B3: GST-NF2-507-595 WT (domain or fragment, UniProt P35240 507-595, looked up)
chain: FDFKDTDMKRLSMEIEKEKVEYMEKSKHLQEQLNELKTEIEALKLKERETALDILHNENSDRGGSSKHNTIKKLTLQSAKSRVAFFEEL
Regarding B3, the binding result in assay [5] is on record as “binds”.

B4: TEAD4-2CS (C335S/C367S), non-palmitoylated mutant of TEAD4-YBD (domain or fragment, human, UniProt Q15561 217-434, looked up)
chain: RSVASSKLWMLEFSAFLEQQQDPDTYNKHLFVHIGQSSPSYSDPYLEAVDIRQIYDKFPEKKGGLKDLFERGPSNAFFLVKFWADLNTNIEDEGSSFYGVSSQYESPENMIITCSTKVSSFGKQVVEKVETEYARYENGHYSYRIHRSPLSEYMINFIHKLKHLPEKYMMNSVLENFTILQVVTNRDTQETLLCIAYVFEVSASEHGAQHHIYRLVKE
notes: TEAD4, human, YBD, residues 217-434 as TEAD4-YBDHis, with C335S and C367S; source: recombinant; not shown: His6, N-terminal, kept
Take B4: in the assay with MBP-NF2 (18-595) WT, the binding result is “binds”.

B5: GST-NF2 tail region (C-tail, 550-595 aa) (domain or fragment, UniProt P35240 550-595, looked up)
chain: KLKERETALDILHNENSDRGGSSKHNTIKKLTLQSAKSRVAFFEEL
notes: also called C-terminal tail
As to B5, the binding result in assay [5] was “binds”.

Source of the values: doi:10.1101/2022.11.28.518166, “The direct interaction with transcriptional factor TEAD4 implied a straightforward regulation mechanism of tumor suppressor NF2” (bioRxiv, 2022).
